First the molecules themselves.
B1: I-136 (peptide)
peptide: XDAXDEAAFVXFXQ
modifications: not fully specified; as printed: Ac-PL3-Asp-Ala-B5-Asp-Glu-Ala-Ala-Phe-Val-S8-Phe-aMeW-Gln-NH2; N-terminal acetyl, C-terminal amide; PL3(1), B5(4), S8(11), aMeW(13); staples PL3-B5 and B5-S8 by olefin metathesis
notes: stapled peptide
B2: I-137 (peptide)
peptide: XDAXDEAAFVXFXQ
modifications: not fully specified; as printed: Ac-PL3-Asp-Ala-B5-Asp-Glu-Ala-Ala-Phe-Val-S8-Phe-aMeW-Gln-NH2; N-terminal acetyl, C-terminal amide; PL3(1), B5(4), S8(11), aMeW(13); staples PL3-B5 and B5-S8 by olefin metathesis
notes: stapled peptide
B3: I-138 (peptide)
peptide: Ac-[αAllylPro]DA[B5(4)]D[Nle]AAFV[S8]FWQ-NH2
modifications: staple 1-4, 4-11; not fully specified; printed as Ac-PL3-Asp-Ala-B5-Asp-nLeu-Ala-Ala-Phe-Val-S8-Phe-Trp-Gln-NH2
notes: stapled peptide
B4: I-149 (peptide)
peptide: DIXDDAAFQXFWH
modifications: not fully specified; as printed: Ac-Asp-Ile-RdN-Asp-Asp-Ala-Ala-Phe-Gln-S7-Phe-Trp-His-NH2; N-terminal acetyl, C-terminal amide; RdN(3), S7(10); staple RdN-S7 by olefin metathesis
notes: stapled peptide
B5: I-139 (peptide)
peptide: Ac-[αAllylPro]DA[B5(21)]D[Nle]AAFV[S8]FWQ-NH2
modifications: staple 1-4, 4-11; not fully specified; printed as Ac-PL3-Asp-Ala-B5-Asp-nLeu-Ala-Ala-Phe-Val-S8-Phe-Trp-Gln-NH2
notes: stapled peptide
B6: I-231 (peptide)
peptide: Ac-[αAllylPro]DA[B5(4)]D[Bta]AAFV[S8]FWQ-NH2
modifications: staple 1-4, 4-11
notes: Stapled peptide composition; also called Ac-PL3-Asp-Ala-B5-Asp-BztA-Ala-Ala-Phe-Val-S8-Phe-Trp-Gln-NH2
B7: I-249 (peptide)
peptide: Ac-[αAllylPro]DA[B5(4)]DDAAFV[S8][Phe(3-CF3)]WQ-NH2
modifications: staple 1-4, 4-11
notes: Stapled peptide composition; also called Ac-PL3-Asp-Ala-B5-Asp-Asp-Ala-Ala-Phe-Val-S8-3F3MeF-Trp-Gln-NH2
B8: I-223 (peptide)
peptide: Ac-FDA[R8]DDAAFT[PyrS″]FWQ-NH2
modifications: staple 4-11
notes: Stapled peptide composition; also called Ac-Phe-Asp-Ala-R8-Asp-Asp-Ala-Ala-Phe-Thr-PyrS-Phe-Trp-Gln-NH2
B9: I-241 (peptide)
peptide: Ac-[αAllylPro]DA[B5(5)]DDAA[Phe(4-CF3)]V[S8]FWQ-NH2
modifications: staple 1-4, 4-11; not fully specified; printed as Ac-PL3-Asp-Ala-B5-Asp-Asp-Ala-Ala-4F3MeF-Val-S8-Phe-Trp-Gln-NH2
notes: Stapled peptide composition; also called Ac-PL3-Asp-Ala-B5-Asp-Asp-Ala-Ala-4F3MeF-Val-S8-Phe-Trp-Gln-NH2
B10: I-239 (peptide)
peptide: Ac-[αAllylPro]DA[B5(5)]DDAA[Phe(3-CF3)]V[S8]FWQ-NH2
modifications: staple 1-4, 4-11; not fully specified; printed as Ac-PL3-Asp-Ala-B5-Asp-Asp-Ala-Ala-3F3MeF-Val-S8-Phe-Trp-Gln-NH2
notes: Stapled peptide composition; also called Ac-PL3-Asp-Ala-B5-Asp-Asp-Ala-Ala-3F3MeF-Val-S8-Phe-Trp-Gln-NH2
B11: I-240 (peptide)
peptide: Ac-[αAllylPro]DA[B5(5)]DDAA[Phe(4-CF3)]V[S8]FWQ-NH2
modifications: staple 1-4, 4-11; not fully specified; printed as Ac-PL3-Asp-Ala-B5-Asp-Asp-Ala-Ala-4F3MeF-Val-S8-Phe-Trp-Gln-NH2
notes: as for B9
B12: I-238 (peptide)
peptide: Ac-[αAllylPro]DA[B5(3)]DDAA[Phe(3-CF3)]V[S8]FWQ-NH2
modifications: staple 1-4, 4-11
notes: as for B10
B13: I-237 (peptide)
peptide: Ac-[αAllylPro]DA[B5(3)]DDAA[Phe(3-CF3)]V[S8]FWQ-NH2
modifications: staple 1-4, 4-11
notes: as for B10
B14: I-229 (peptide)
peptide: Ac-[αAllylPro]DA[B5(4)][2Pal]EAAFV[S8]FWQ-NH2
modifications: staple 1-4, 4-11; also: separate staple isomer composition
notes: Stapled peptide composition; also called Ac-PL3-Asp-Ala-B5-2pyrA-Glu-Ala-Ala-Phe-Val-S8-Phe-Trp-Gln-NH2
B15: I-222 (peptide)
peptide: Ac-FDA[R8]DDAAFT[PyrS″]FWQ-NH2
modifications: staple 4-11
notes: as for B8
B16: I-224 (peptide)
peptide: Ac-FDA[R8]DDAAFT[PyrS]FWQ-NH2
modifications: staple 4-11
notes: as for B8
B17: I-243 (peptide)
peptide: Ac-[αAllylPro]DA[B5(5)]DDAA[Phe(4-CF3)]V[S8]FWQ-NH2
modifications: staple 1-4, 4-11; not fully specified; printed as Ac-PL3-Asp-Ala-B5-Asp-Asp-Ala-Ala-4F3MeF-Val-S8-Phe-Trp-Gln-NH2
notes: as for B9
B18: I-234 (peptide)
peptide: Ac-[αAllylPro]DA[B5(3)]D[1Nal]AAFV[S8]FWQ-NH2
modifications: staple 1-4, 4-11
notes: Stapled peptide composition; also called Ac-PL3-Asp-Ala-B5-Asp-1NapA-Ala-Ala-Phe-Val-S8-Phe-Trp-Gln-NH2
B19: I-235 (peptide)
peptide: Ac-[αAllylPro]DA[B5(3)]D[Bip]AAFV[S8]FWQ-NH2
modifications: staple 1-4, 4-11
notes: Stapled peptide composition; also called Ac-PL3-Asp-Ala-B5-Asp-Bip-Ala-Ala-Phe-Val-S8-Phe-Trp-Gln-NH2
B20: I-248 (peptide)
peptide: Ac-[αAllylPro]DA[B5(4)]DDAAFV[S8][Phe(3-CF3)]WQ-NH2
modifications: staple 1-4, 4-11
notes: as for B7
B21: I-230 (peptide)
peptide: Ac-[αAllylPro]DA[B5(4)][2Pal]EAAFV[S8]FWQ-NH2
modifications: staple 1-4, 4-11; also: separate staple isomer composition
notes: as for B14
B22: I-253 (peptide)
peptide: Ac-[αAllylPro]DA[B5(4)]DDAAFV[S8][Phe(4-CF3)]WQ-NH2
modifications: staple 1-4, 4-11
notes: Stapled peptide composition; also called Ac-PL3-Asp-Ala-B5-Asp-Asp-Ala-Ala-Phe-Val-S8-4F3MeF-Trp-Gln-NH2
B23: I-252 (peptide)
peptide: Ac-[αAllylPro]DA[B5(4)]DDAAFV[S8][Phe(4-CF3)]WQ-NH2
modifications: staple 1-4, 4-11
notes: as for B22
B24: I-242 (peptide)
peptide: Ac-[αAllylPro]DA[B5(5)]DDAA[Phe(4-CF3)]V[S8]FWQ-NH2
modifications: staple 1-4, 4-11; not fully specified; printed as Ac-PL3-Asp-Ala-B5-Asp-Asp-Ala-Ala-4F3MeF-Val-S8-Phe-Trp-Gln-NH2
notes: as for B9
B25: I-232 (peptide)
peptide: Ac-[αAllylPro]DA[B5(4)]D[2Nal]AAFV[S8]FWQ-NH2
modifications: staple 1-4, 4-11
notes: Stapled peptide composition; also called Ac-PL3-Asp-Ala-B5-Asp-2NapA-Ala-Ala-Phe-Val-S8-Phe-Trp-Gln-NH2

Starred links: 1 amine or outer side, 2 acyl side, 3 side chain; linkers in the order of their positions; H or OH if unused. Positions of bridges follow the written chain, without caps; N, C: chain ends. Non-standard residues stand in square brackets, D forms with d. Primed or numbered codes have the meaning given here. B5(4) = 2,2-bis(4-pentenyl)glycine = 2-amino-2-(pent-4-en-1-yl)hept-6-enoic acid (stitching residue), C=CCCCC(CCCC=C)(N[*:1])C(=O)[*:2]; B5(5) = 2,2-bis(4-pentenyl)glycine, 2-amino-2-(pent-4-en-1-yl)hept-6-enoic acid (stitching residue), C=CCCCC(CCCC=C)(N[*:1])C(=O)[*:2]; PyrS″ = (S)-1-((allyloxy)carbonyl)-3-aminopyrrolidine-3-carboxylic acid (stapling residue), C=CCOC(=O)N1CC[C@@](N[*:1])(C(=O)[*:2])C1; B5(21) = 2-amino-2-(pent-4-en-1-yl)hept-6-enoic acid, bis(4-pentenyl)glycine (stitching residue), C=CCCCC(CCCC=C)(N[*:1])C(=O)[*:2]; PyrS = (S)-1-((allyloxy)carbonyl)-3-aminopyrrolidine-3-carboxylic acid, C=CCOC(=O)N1CC[C@@](N[*:1])(C(=O)[*:2])C1; 6F1NapA = 2-amino-3-(6-fluoronaphthalen-1-yl)propanoic acid, O=C([C@H](Cc1cccc2cc(F)ccc12)N[*:1])[*:2]; B5(3) = 2,2-bis(4-pentenyl)glycine (stitching residue), C=CCCCC(CCCC=C)(N[*:1])C(=O)[*:2]; B5 = 2-amino-2-(pent-4-en-1-yl)hept-6-enoic acid, C=CCCCC(CCCC=C)(N[*:1])C(=O)[*:2]; Phe(3-CF3) = N[C@@H](Cc1cccc(C(F)(F)F)c1)C(=O)O; Phe(4-CF3) = N[C@@H](Cc1ccc(C(F)(F)F)cc1)C(=O)O; Trp(5-F) = N[C@@H](Cc1c[nH]c2ccc(F)cc12)C(=O)O; Bip = N[C@@H](Cc1ccc(-c2ccccc2)cc1)C(=O)O; 1Nal = N[C@@H](Cc1cccc2ccccc12)C(=O)O; 2Nal = N[C@@H](Cc1ccc2ccccc2c1)C(=O)O; Bta = N[C@@H](Cc1csc2ccccc12)C(=O)O; αAllylPro = C=CC[C@@]1(C(=O)O)CCCN1; 2Pal = N[C@@H](Cc1ccccn1)C(=O)O; R8 = C=CCCCCCC[C@@](C)(N)C(=O)O; S8 = C=CCCCCCC[C@](C)(N)C(=O)O; Nle = CCCC[C@H](N)C(=O)O; Aib = CC(C)(N)C(=O)O

EC50 data for 29 molecules are collected here from patent publication US20240116985A1 (published 2024).

The first experiment addresses T1, full-length beta-Catenin (Uniprot ID P35222) (Homo sapiens (Human), UniProt P35222 2-781).
T1 construct: the AlphaScreen assay uses a Histidine (Nickel Chelate) detection kit, so a His tag is likely there; also called B-Catenin; bCat
T1 sequence: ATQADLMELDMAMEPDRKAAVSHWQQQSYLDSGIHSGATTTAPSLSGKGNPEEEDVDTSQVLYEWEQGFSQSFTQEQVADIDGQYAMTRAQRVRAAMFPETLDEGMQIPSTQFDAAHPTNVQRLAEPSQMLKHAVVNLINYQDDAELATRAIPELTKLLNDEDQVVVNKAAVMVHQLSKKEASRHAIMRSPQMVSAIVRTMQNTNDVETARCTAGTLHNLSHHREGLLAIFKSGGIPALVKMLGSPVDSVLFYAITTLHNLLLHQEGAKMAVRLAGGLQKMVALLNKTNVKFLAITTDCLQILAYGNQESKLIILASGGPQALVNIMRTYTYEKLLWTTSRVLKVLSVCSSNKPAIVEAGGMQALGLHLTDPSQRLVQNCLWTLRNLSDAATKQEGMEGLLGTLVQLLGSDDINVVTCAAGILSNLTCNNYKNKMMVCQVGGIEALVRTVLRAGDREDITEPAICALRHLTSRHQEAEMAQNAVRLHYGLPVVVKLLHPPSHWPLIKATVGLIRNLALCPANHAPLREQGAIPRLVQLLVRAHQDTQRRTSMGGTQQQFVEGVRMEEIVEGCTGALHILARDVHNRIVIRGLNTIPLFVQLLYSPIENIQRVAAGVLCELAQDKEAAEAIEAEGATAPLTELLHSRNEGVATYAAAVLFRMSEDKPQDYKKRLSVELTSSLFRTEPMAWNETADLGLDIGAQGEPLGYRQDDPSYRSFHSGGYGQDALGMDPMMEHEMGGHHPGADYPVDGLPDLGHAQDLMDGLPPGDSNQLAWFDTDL
Put plainly: AlphaScreen competition; full-length beta-catenin with biotin-TCF4(10-53) probe as competitor. Here is the method:
(§1) Equal volume of the titrated peptide was added to the plate and incubated for 15 minutes at 20° C. Then 4 uL of donor and 4 uL acceptor beads at 10 ug/mL were added to the plate, for a 16 uL reaction pool and protected from light for 60 minutes at 20° C. prior to read. Reads were performed on a CLARIOstar plate reader (BMG Labtech) in duplicate, and data were fitted to a 1:1 binding model with hill slope using an in-house script. All provided concentrations are final concentrations.
(In general: Bead proximity is the source of the signal in Alpha formats.)
Ac-[αAllylPro]DA[B5]DEAAFV[S8]F[Bip]Q-NH2 (staple 1-4, 4-11, stapled peptide composition) [I-145]: the EC50 (in general, the concentration that produces a half-maximal response) is no less than 10 µM.
Same read-out and setting: for B1 the value was 3.3 µM; for Ac-[αAllylPro]DA[B5(4)]DEAAFV[S8]F[6F1NapA]Q-NH2 (staple 1-4, 4-11, stapled peptide composition) [I-142], 7.37 µM; for B2, 1.41 µM.
Same read-out and setting: for B3 the value was no less than 10 µM; for B4, 1.79 µM; for B5, no less than 10 µM.
Ac-[αAllylPro]DA[B5(4)]DEAAFV[S8]F[Trp(5-F)]Q-NH2 (staple 1-4, 4-11, stapled peptide composition) [I-146] registered an EC50 of 1.22 µM.
Same read-out and setting: for Ac-[Aib]DA[R8]DEAAFV[PyrS]FWQ-NH2 (staple 4-11; also: earlier-eluting staple isomer, stapled peptide) [I-157] the value was 4.06 µM.

In the next experiment the target is T2, full-length beta-Catenin (Uniprot ID P35222) (Homo sapiens (Human), UniProt P35222 2-781).
T2 construct: The AlphaScreen assay used a Histidine (Nickel Chelate) detection kit, so a His tag is likely, but no tag is described; also called B-Catenin; bCat
T2 sequence: T1 sequence
Put plainly: AlphaScreen competition: full-length beta-catenin + biotin-TCF4(10-53) probe, peptide titrated. How it is done: as §1
On to B6, for which the EC50 worked out at 6.53 µM.
On the same count and under the same terms, for B7 the value was 2.83 µM.
In the case of B8, the EC50 turned out to be 4.12 µM.
Same read-out and setting: the result for B9 reads 3.47 µM.
B10: the EC50 was determined as 0.267 µM.
Same read-out and setting: for B11 the value was 3.47 µM.
On the same count and under the same terms, the result for B12 reads 0.267 µM; that for B13, 0.384 µM; that for B14, 5.81 µM.
Same read-out and setting: the result for B15 reads 6.58 µM; that for B16, 4.12 µM.
B17: the EC50 is 4.91 µM.
Same read-out and setting: the result for B18 reads 7.53 µM.
The same measure, in the same setting: the result for B19 reads 7.34 µM.
With B20, the EC50 was found to be 2.83 µM.
Still for that read-out and setting: the result for B21 reads 4.61 µM.
Same read-out and setting: for B22 the value was 3.69 µM; for B23, 3.69 µM; for B24, 4.91 µM.
The same measure, in the same setting: for B25 the value was 7.64 µM.
